Consider 1 sequence from US20170028070A1.

This data set concerns HER2 epitope peptide. As to conditions: 5'-H2N-(CH2)6; doxorubicin intercalated, Dox:aptamer 10:1; apparent Kd from doxorubicin fluorescence release upon epitope binding; Dox molar ratio 10.

Turning to “AACCGCCCAAATCCCTAAGAGTCTGCACTTGTCATTTTGTATATGTATTTGGTTTTTGGCTCTCACAGACACACTACACACGCACA [Dox-loaded anti-HER2 aptamer]”, the Kd was 50 nM.
